According to IntAct's records for PubMed 19561611:

B1: Hedgehog-interacting protein (Homo sapiens), Q96QV1-1 (parent)
chain: MLKMLSFKLLLLAVALGFFEGDAKFGERNEGSGARRRRCLNGNPPKRLKRRDRRMMSQLELLSGGEMLCGGFYPRLSCCLRSDSPGLGRLENKIFSVTNNTECGKLLEEIKCALCSPHSQSLFHSPEREVLERDLVLPLLCKDYCKEFFYTCRGHIPGFLQTTADEFCFYYARKDGGLCFPDFPRKQVRGPASNYLDQMEEYDKVEEISRKHKHNCFCIQEVVSGLRQPVGALHSGDGSQRLFILEKEGYVKILTPEGEIFKEPYLDIHKLVQSGIKGGDERGLLSLAFHPNYKKNGKLYVSYTTNQERWAIGPHDHILRVVEYTVSRKNPHQVDLRTARVFLEVAELHRKHLGGQLLFGPDGFLYIILGDGMITLDDMEEMDGLSDFTGSVLRLDVDTDMCNVPYSIPRSNPHFNSTNQPPEVFAHGLHDPGRCAVDRHPTDININLTILCSDSNGKNRSSARILQIIKGKDYESEPSLLEFKPFSNGPLVGGFVYRGCQSERLYGSYVFGDRNGNFLTLQQSPVTKQWQEKPLCLGTSGSCRGYFSGHILGFGEDELGEVYILSSSKSMTQTHNGKLYKIVDPKRPLMPEECRATVQPAQTLTSECSRLCRNGYCTPTGKCCCSPGWEGDFCRTAKCEPACRHGGVCVRPNKCLCKKGYLGPQCEQVDRNIRRVTRAGILDQIIDMTSYLLDLTSYIV

Variants of: B1
Details: with shh_mouse Shh

effect of a mutation on the interaction | Variant
disrupting interaction strength | D383A
disrupting interaction strength | D383R
